Measured values reported in patent US6855693B2, “Peptides for activation and inhibition of δPKC” (The Board of Trustees of the Leland Stanford Junior …, priority 2001, dated 2005).
No end group written: not given here.

What was measured:
αPKC = target: T1, αPKC (Rattus norvegicus, UniProt P05696); assay: Translocation of αPKC in primary cardiac myocytes (Western blot); format: cell-based; conditions: data not shown
T1 construct: blots probed with anti-δPKC, anti-αPKC and anti-εPKC antibodies; endogenous in cells; host or cells: primary neonatal rat cardiac myocytes
Protocol: As described in Example 1, the δV1-1 and ψδRACK peptides were analyzed to determine whether the peptides had activity, and if so, whether the activity was as an agonist or an antagonist of δPKC. As will be shown, δV1-1, δV1-2 and δV1-5 are δPKC antagonists and ψδRACK is a δPKC agonist. In these studies, the δV1-1 and ψδRACK peptides were modified with a carrier peptide by cross-linking via an N-terminal Cys-Cys bond to the Drosophila Antennapedia homeodomain (SEQ ID NO:8; Théodore, L., et al.; Johnson, J. A. et al., 1996b). […] Translocation of δPKC isozyme was assessed by Western blot analysis cystosolic and particulate fractions of treated cells. Subcellular localization of δPKC isozyme was assessed by immunofluorescence by probing the blot with […], and anti-εPKC antibodies. Translocation was expressed as the amount of isozyme in the particulate fraction over the amount of isozyme in non-treated cells. […]
Translocation of δPKC isozyme was assessed by using δPKC isozyme-specific antibodies in Western blot analysis (Santa Cruz Biotechnology). […] Subcellular localization of dPKC isozymes was assessed by chemiluminescence of blots probed with anti-δPKC, anti-αPKC and anti-εPKC antibodies. […] Changes in translocation of δPKC isozyme were also determined by immunofluoresence study of treated and fixed cells (Gray et al., 1997). […]

δPKC = target: T2, δPKC (Rattus norvegicus, UniProt P09215); assay: Translocation of δPKC in primary cardiac myocytes (Western blot of soluble and particulate fractions); format: cell-based
T2 construct: endogenous in cells; host or cells: primary neonatal rat cardiac myocytes
T2 sequence (P09215 whole entry): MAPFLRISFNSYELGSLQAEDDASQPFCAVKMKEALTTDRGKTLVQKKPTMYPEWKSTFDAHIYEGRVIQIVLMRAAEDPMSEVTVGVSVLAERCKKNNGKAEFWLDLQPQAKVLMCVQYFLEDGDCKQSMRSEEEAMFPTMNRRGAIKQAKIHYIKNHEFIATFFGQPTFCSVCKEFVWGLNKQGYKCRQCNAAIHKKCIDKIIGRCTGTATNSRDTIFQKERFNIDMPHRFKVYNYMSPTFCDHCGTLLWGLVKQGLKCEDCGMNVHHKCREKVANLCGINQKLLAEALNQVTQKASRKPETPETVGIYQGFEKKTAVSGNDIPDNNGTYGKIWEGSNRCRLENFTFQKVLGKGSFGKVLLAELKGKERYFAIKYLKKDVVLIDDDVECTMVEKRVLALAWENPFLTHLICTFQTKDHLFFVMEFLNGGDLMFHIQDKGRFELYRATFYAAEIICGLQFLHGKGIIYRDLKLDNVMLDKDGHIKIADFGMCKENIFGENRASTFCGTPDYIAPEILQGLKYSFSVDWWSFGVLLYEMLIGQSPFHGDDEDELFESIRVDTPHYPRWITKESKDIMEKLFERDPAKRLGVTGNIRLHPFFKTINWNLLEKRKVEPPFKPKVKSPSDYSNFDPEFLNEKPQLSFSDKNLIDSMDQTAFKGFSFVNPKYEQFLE
Protocol: As described in Example 1, the δV1-1 and ψδRACK peptides were analyzed to determine whether the peptides had activity, and if so, whether the activity was as an agonist or an antagonist of δPKC. As will be shown, δV1-1, δV1-2 and δV1-5 are δPKC antagonists and ψδRACK is a δPKC agonist. In these studies, the δV1-1 and ψδRACK peptides were modified with a carrier peptide by cross-linking via an N-terminal Cys-Cys bond to the Drosophila Antennapedia homeodomain (SEQ ID NO:8; Théodore, L., et al.; Johnson, J. A. et al., 1996b). In other studies, not described here, the peptide was modified with Tat (SEQ ID NO:9) or with polyarginine (Mitchell et al., 2000; Rothbard et al., 2000) and gave results similar to those described herein. Details of the study are set forth in Example 1. In brief, the Antennapedia-conjugated peptides were introduced to cardiac cells at a concentration of 500 nM in the presence and absence of phorbol 12-myristate 13-acetate (PMA) or in the presence of each other. Translocation of δPKC isozyme was assessed by Western blot analysis cystosolic and particulate fractions of treated cells. Subcellular localization of δPKC isozyme was assessed by immunofluorescence by probing the blot with […], and anti-εPKC antibodies. Translocation was expressed as the amount of isozyme in the particulate fraction over the amount of isozyme in non-treated cells.
Primary cardiac myocyte cell cultures (90-95% pure) were prepared from newborn rats (Gray, M. O. et al.; Disatnik M.-H. et al.). The peptides δV1-1 and ψδRACK were introduced into cells at an applied concentration of 500 nM in the presence and absence of phorbol 12-myristate 13-acetate (PMA) at concentrations of 3 nm and 10 nm, respectively, for 10-20 minutes. In a third set of cells, the peptide δV1-1 was applied at a concentration of 500 nM in the presence and absence of 500 nM ψδRACK.
Translocation of δPKC isozyme was assessed by using δPKC isozyme-specific antibodies in Western blot analysis (Santa Cruz Biotechnology). Western blot analysis of cystosolic and particulate fractions of treated cells was carried out as described by Johnson et al., 1995. Subcellular localization of dPKC isozymes was assessed by chemiluminescence of blots probed with anti-δPKC, anti-αPKC and anti-εPKC antibodies. Amounts of PKC isozymes in each fraction was quantitated using a scanner and translocation is expressed as the amount of isozymes in the particulate fraction over the amount of isozymes in non-treated cells. Changes in translocation of δPKC isozyme were also determined by immunofluoresence study of treated and fixed cells (Gray et al., 1997). Translocation was determined by counting over 100 cells/treatment in a blinded fashion. The results are shown in FIG. 2A-2B, FIGS. 3A-3B and FIGS. 4A-4B.

[1] = tested on: isolated adult rat cardiac myocytes; assay: Simulated ischemia in isolated cardiac myocytes, cell damage by osmotic fragility test (trypan blue uptake); format: cell-based
Protocol: In another study, the δPKC activator peptide, ψδRACK, and the δPKC inhibitor peptide, δV1-1 were administered to isolated rat cardiac myocytes to determine the role of δPKC in protection from ischemia. As described in Example 2, the Antennapedia carrier-peptide conjugate of δV1-1 and/or ψδRACK was introduced into isolated adult rat cardiac myocytes ten minutes prior to prolonged ischemia. Cell damage was assessed using an osmotic fragility test by measuring uptake of trypan blue.
Adult male Wistar rat cardiomyocytes were prepared on a Langendorff apparatus (van der Heide, R. S. et al.) by collagenase treatment (Armstrong, S. et al.). The cells were treated with δV1-1 at concentrations of 10 nM, 100 nM, 500 nM, and 1 μM in the presence or absence of 1 μM ψδRACK. βPKC-selective activator was used as a control.
For […] ischemia, adult myocytes treated in microcentrifuge tubes with δV1-1 and/or ψδRACK peptides conjugated to the carrier were washed twice with degassed glucose-free incubation buffer and pelleted. On top of a minimal amount of buffer, the cell pellets were overlaid with either a micro-balloon (Sig Manufacturing, Montezuma, Iowa) or with degassed buffer saturated with nitrogen, and sealed with an airtight top. Tubes were then incubated at 37 C for either 180 minutes or 90 minutes.
Cell damage was assessed by an osmotic fragility test by measuring the uptake of trypan blue added in a hypotonic (85 mosM) solution. Similar results were also obtained by using a live-dead kit (Molecular Probes) or measuring the release of […] to the medium using a kit (Sigma) as previously described (Chen, et al., 1999; Gray et al., 1997; Mackay et al., 1999).

adult female pigs = assay: Pathology of blood and tissue samples of the treated pigs; parameters: species or system pig; conditions: pigs treated in vivo with δV1-1
Text: Blood samples and tissue samples of lung, liver, brain, gut, kidney, etc. were collected from the animals and analyzed at a pathology lab. […] Kidney, liver, brain, and lung functions were normal and all blood analyses were also normal.

pigs = assay: Left ventricurogram in pigs, ejection fraction; format: in vivo, pig
Protocol: In another study, left ventricurogram was performed in pigs (n=5) at three time points: (1) before occlusion of left anterior descending artery by balloon catheter (pre ischemia); (2) immediately after reperfusion with 2.5 μM/10 mL of δV1-1 (post ischemia); and (3) before sacrifice five days later (5 days post ischemia), using 6 Fr. of pig-tail catheter. LVG was recorded by 2 views, right anterior oblique and left anterior oblique. Ejection fraction (EF), the percent of blood ejected in a beat, during maximum contraction, of the total maximum present in the left ventricle, was analyzed by the software, Plus Plus (Sanders Data Systems), and the averages of two views were evaluated. Ejection fraction is a measure of how well the heart is functioning, with a higher ejection fraction indicative of a better functioning heart.

translocation of αPKC (αPKC) | δPKC translocation induced by the peptide (δPKC; 500 nM Antennapedia-conjugated peptide, cardiac myocytes) | effect on the δV1-1 inhibition of basal δPKC partitioning (δPKC; 500 nM ψδRACK together with 500 nM δV1-1) | PMA-induced δPKC translocation (δPKC; 500 nM Antennapedia-conjugated peptide, with PMA, 10-20 minutes, newborn rat cardiac myocytes) | basal partitioning of δPKC in the particulate fraction (δPKC; 500 nM δV1-1, no ψδRACK) | Sequence | cardiac myocyte damage after ischemic insult ([1]; 1 μM ψδRACK, 180 minute ischemia) | effect of co-incubation on the δV1-1 protection from ischemia-induced damage ([1]; co-incubation with δV1-1, 180 minute ischemia, ψδRACK 1 μM) | ψδRACK-induced increase in cell damage ([1]; ischemia shortened to 90 minutes) | blood samples and tissue samples of lung, liver, brain, gut, kidney, pathology (adult female pigs) | protection from ischemia-induced cell damage ([1]; 10 nM, 100 nM, 500 nM, 1 μM, given 10 minutes prior to 180 minute ischemia) | effect of co-treatment on the ψδRACK-induced increase in cell damage ([1]; 90 minute ischemia, co-treatment with ψδRACK) | decrease in ejection fraction compared with scrambled peptide control (pigs; reperfusion with 2.5 μM/10 mL of δV1-1, post ischemia) | ejection fraction at five days post ischemia (pigs; reperfusion with 2.5 μM/10 mL of δV1-1, 5 days post ischemia)
without affecting | selectively induced | reversed | – | – | MRAAEDPM (also: conjugated to Antennapedia or Tat carrier; listed as Rattus norvegicus) [ψδRACK, tested conjugated to Antennapedia or Tat carrier] | slight increase | prevented | became significant | – | – | – | – | –
did not inhibit | – | – | inhibited | inhibited | SFNSYELGSL (also: conjugated to Antennapedia or Tat carrier; listed as Rattus norvegicus) [δV1-1, tested conjugated to Antennapedia or Tat carrier] | – | – | – | All samples were normal and no inflammation or tissue abnormalities were observed | concentration-dependent level of protection | reversed | less pronounced decrease | on par with that measured prior to ischemia and significantly higher than the untreated animals
